From paper PMC8927147, “Global profiling of regulatory elements in the histone benzoylation pathway” (Nature Communications, 2022) come the findings set out here.

Ends that are not written are not given here. * marks the point of attachment. Bz = O=C(c1ccccc1)*

What all share (assay): crystal structure; protein (15 mg/ml) mixed with peptide at 1:5 molar ratio; sitting-drop vapor diffusion at 25 °C
Conditions in all cases: both partners purified

For experiment [1], the target named is T1, Sth1BD (S. cerevisiae, UniProt P32597 1248-1359).
T1 construct: also called Bromodomain from Sth1; source: E. coli Rosetta, purified (Ni-NTA, on-bead ULP1 digestion, SEC); not shown: 6*His-Sumo, N-terminal, cleaved
T1 sequence (looked up): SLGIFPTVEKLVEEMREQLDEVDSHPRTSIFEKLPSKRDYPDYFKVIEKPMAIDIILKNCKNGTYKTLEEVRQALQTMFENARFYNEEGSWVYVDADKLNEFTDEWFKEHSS

Experiment [2] addresses T2, Sas5_(YEATS) (S. cerevisiae, UniProt Q99314 2-139).
T2 construct: also called YEATS domain of Sas5; source: E. coli Rosetta, purified (Ni-NTA, on-bead ULP1 digestion, SEC); not shown: 6*His-Sumo, N-terminal, cleaved
T2 sequence (looked up): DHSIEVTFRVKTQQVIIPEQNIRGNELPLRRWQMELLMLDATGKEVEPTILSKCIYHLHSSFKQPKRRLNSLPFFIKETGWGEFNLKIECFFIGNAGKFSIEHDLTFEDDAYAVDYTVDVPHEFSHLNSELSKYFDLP

The target of experiment [3] is T3, Hst2_(8-294) (S. cerevisiae, UniProt P53686 8-294).
T3 construct: Construct of the crystal structures; source: E. coli Rosetta, purified (Ni-NTA, on-bead ULP1 digestion, SEC); not shown: 6*His-Sumo, N-terminal, cleaved

Experiment [4] has as its target T4, Taf14_(YEATS) (S. cerevisiae, UniProt P35189 2-137).
T4 construct: Taf14, S. cerevisiae, YEATS domain, residues 2-137; also called Taf14_(2-137); YEATS domain of Taf14; source: E. coli Rosetta, purified (Ni-NTA, on-bead ULP1 digestion, SEC); not shown: 6*His-Sumo, N-terminal, cleaved
T4 sequence (looked up): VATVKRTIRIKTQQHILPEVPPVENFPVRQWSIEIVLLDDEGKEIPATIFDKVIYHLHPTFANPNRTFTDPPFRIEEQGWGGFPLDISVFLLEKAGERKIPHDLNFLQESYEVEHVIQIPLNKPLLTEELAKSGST

T3 sequence (P53686 8-294): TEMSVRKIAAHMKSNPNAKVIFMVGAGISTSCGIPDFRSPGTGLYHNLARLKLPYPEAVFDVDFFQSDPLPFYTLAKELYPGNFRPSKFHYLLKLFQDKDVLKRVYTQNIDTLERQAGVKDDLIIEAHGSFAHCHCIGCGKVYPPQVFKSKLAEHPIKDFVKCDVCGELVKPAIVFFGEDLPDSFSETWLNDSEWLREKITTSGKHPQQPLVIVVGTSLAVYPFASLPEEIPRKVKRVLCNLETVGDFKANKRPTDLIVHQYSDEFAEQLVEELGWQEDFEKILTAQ

B1: H3K14bz(TARKSTGGKbzAPRKQLASY) (peptide)
peptide: TARKSTGGK(Bz)APRKQLASY
notes: histone H3, residues 6-22; C-terminal tyrosine (Y23) that is not in H3 at this position; also called H3K14bz peptide of the Sth1BD crystal; source: synthetic peptide
On to B1, for which the binding result in experiment [1] is “binds”.

B2: H3_(18-37)K27bz (peptide)
peptide: KQLASKAARK(Bz)SAPSTGGVKY
notes: histone H3, residues K18 to K36; extra tyrosine residue (Y37) at the C-terminus designed for concentration determination by UV spectrometry; source: synthetic peptide
For the molecule B2, the binding result in experiment [2] is listed as “binds”.

B3: H3_(5-14)K9bz (peptide)
peptide: QTARK(Bz)STGGK
notes: histone H3, residues 5-14; also called benzoylated H3 peptide; source: synthetic peptide
In the case of B3, in experiment [3], the binding result is recorded as “binds”.

B4: H3_(5-13)K9bz (peptide)
peptide: Ac-QTARK(Bz)STGG
notes: histone H3, residues 5-13; Peptide crystallised with Taf14_(2-137); also called H3K9bz (Ac-QTARKbzSTGG); source: synthetic peptide
Consider B4, for which the binding result in experiment [4] was “binds”.
